Experimental findings from patent US20090238791A1 (INSTITUT NATIONAL DE LA SANTE ET DE LA RECHERCHE MEDICALE …, published 2009) are described below.

Test [1] addresses T1, Recombinant human IL-15 (human, UniProt P40933 49-162).
T1 construct: also called rIL-15; human rIL-15
As to the kind of experiment: SPR, BIAcore 2000. How it is done: (§1) These experiments were performed with a BIACore 2000 biosensor (BIACore, Uppsala, Sweden). rIL-15 was covalently linked to CM5 sensor chips, and the binding of increasing concentrations of sIL-15Rα-IL-2, sIL-15Rα-sushi-IL-2 or sIL-15Rα-sushi was monitored. Analysis of sensograms was performed using BIAlogue kinetics evaluation software.
On the technique in general: Surface plasmon resonance follows binding to a sensor surface in real time, without labels.

Test [2] addresses T1, Recombinant human IL-15. Kind of test: cell-based or functional assay.
Test [3] has as its target T1, Recombinant human IL-15. Kind of test: Competition with 125I-rIL-15 (200 pM) binding to IL-15Rα on TF-1 cells. How it is done: The three soluble forms of IL-15Rα were tested for their ability to compete out the binding of radio-iodinated IL-15 to IL-15Rα expressed by the human cell line TF-1 which also expresses the IL-15Rγ chain, but not the IL-15Rβ chain (FIG. 1D).

Test [4] addresses T2, IL-15Rβ/γ complex (intermediate affinity receptor), human (human, UniProt P14784 27-551; P31785 23-369).
T2 construct: whole, on cells; Found on Mo-7 cells, which express IL-15Rβ/γ but not IL-15Rα; also called IL-15Rbeta/gamma; IL-2Rβ/γ
Kind of test: 125I-sIL-15Rα-sushi saturation binding to TF-1β cells in the presence of 1 nM rIL-15. On the procedure: Labeling with [¹²⁵I]-iodine of human rIL-15, sIL-15Rα-sushi and RLI fusion protein, and subsequent binding experiments were performed as described previously (19). For internalization, cells were equilibrated at 4° C. with labeled sIL-15Rα-sushi or RLI, and the temperature switched to 37° C. At different time intervals, two samples were washed and centrifuged. One of the cell pellets was treated with glycine-HCl buffer 0.2 M, pH 2.5, whereas the other was treated with PBS pH 7.4 at 4° C. for 5 min. After centrifugation, total ligand binding was determined from the pellet of the cells treated with PBS, whereas the membrane bound and internalized fractions were determined respectively from the supernatant and pellet of cells treated with acid pH.
As further shown in FIG. 6D, the radiolabeled sIL-15Rα-sushi was efficiently internalized. Radiolabeled RLI fusion protein also bound to TF1β cells (FIG. 6E). […] Once bound, the RLI was also efficiently internalized (FIG. 6F).

In test [5] the target is T1, Recombinant human IL-15. Kind of test: SPR.
The target of test [6] is T1, Recombinant human IL-15. Kind of test: SPR, analysis of sensorgrams. How it is done:
as §1

T1 sequence (P40933 49-162 limits assumed): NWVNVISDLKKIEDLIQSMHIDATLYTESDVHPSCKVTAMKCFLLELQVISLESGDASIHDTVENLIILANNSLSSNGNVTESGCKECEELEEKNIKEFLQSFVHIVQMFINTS
T2 sequence (P14784 whole entry, chain 1 of 2): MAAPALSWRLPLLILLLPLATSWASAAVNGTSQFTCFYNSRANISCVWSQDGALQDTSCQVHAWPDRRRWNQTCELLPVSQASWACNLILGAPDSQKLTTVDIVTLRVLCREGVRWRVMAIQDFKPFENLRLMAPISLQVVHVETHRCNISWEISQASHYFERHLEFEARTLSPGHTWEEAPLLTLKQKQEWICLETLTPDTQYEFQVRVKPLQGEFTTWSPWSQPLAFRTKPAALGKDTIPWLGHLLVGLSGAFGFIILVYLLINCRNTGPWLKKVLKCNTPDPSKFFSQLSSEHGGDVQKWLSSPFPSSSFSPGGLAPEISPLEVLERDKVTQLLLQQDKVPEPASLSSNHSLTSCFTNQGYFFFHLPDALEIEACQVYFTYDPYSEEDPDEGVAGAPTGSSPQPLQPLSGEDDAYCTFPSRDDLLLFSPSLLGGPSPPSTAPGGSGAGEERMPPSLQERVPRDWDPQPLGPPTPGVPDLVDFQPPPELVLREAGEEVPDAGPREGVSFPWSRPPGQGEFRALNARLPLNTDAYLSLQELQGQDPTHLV
T2 sequence (P31785 whole entry, chain 2 of 2): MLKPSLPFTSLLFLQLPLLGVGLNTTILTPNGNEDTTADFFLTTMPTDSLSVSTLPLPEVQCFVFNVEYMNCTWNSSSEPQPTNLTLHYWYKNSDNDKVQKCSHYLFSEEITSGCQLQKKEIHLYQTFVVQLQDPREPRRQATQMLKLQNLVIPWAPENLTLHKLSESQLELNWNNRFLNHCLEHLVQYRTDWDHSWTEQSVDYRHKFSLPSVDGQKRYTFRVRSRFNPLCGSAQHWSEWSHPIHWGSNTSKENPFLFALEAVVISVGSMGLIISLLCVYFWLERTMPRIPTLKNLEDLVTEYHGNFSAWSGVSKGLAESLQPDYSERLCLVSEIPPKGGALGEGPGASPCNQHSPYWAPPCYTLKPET

B1: sIL-15Rα-sushi (receptor)
chain: ITCPPPMSVEHADIWVKSYSLYSRERYICNSGFKRKAGTSSLTECVLNKATNVAHWTTPSLKCIRD
notes: also called soluble sushi domain; not shown: Vector-encoded tag of pQE30; The protein was trapped on Ni-NTA agarose
Turning to B1, in the test with Recombinant human IL-15 [1], the Kd was determined as 1.5 nM, the koff worked out at 0.00038 s⁻¹ and the association rate constant (kon) stood at 250000 M⁻¹ s⁻¹. Moreover, the “IC50 of the potentiation of Mo-7 proliferation driven by a fixed concentration of rIL-15 (1 nM)” value with Recombinant human IL-15 [2] was 3.5 nM. For the same molecule, the half-inhibitory concentration (IC50) with Recombinant human IL-15 [3] came out at 1.3 nM. Moreover, the dissociation constant (Kd) in test [4] is 3.5 nM.

B2: sIL-15Rα-Sushi+ (receptor)
chain: ITCPPPMSVEHADIWVKSYSLYSRERYICNSGFKRKAGTSSLTECVLNKATNVAHWTTPSLKCIRDPALVHQRPAPP
notes: Expressed in SF9 insect cells; No sentence names it for Sushi+; also called Sushi15+; Flag-Factor Xa tagged sIL-15Rα-Sushi+; not shown: Flag-Factor Xa tag
Regarding B2, in the test with Recombinant human IL-15 [5], the “fold increase in binding affinity compared to sIL-15Rα-Sushi-IL-2” value was 4 fold and the “fold lower affinity than the full length soluble IL-15Rα” value was determined as 3 fold. In addition, the Kd in the test with Recombinant human IL-15 [6] was 0.102 nM.

In general, Kd refers to the concentration at which binding is half-saturated. For orientation: koff means the first-order rate constant of dissociation. In general, kon refers to a measure of how fast the partners come together. A word on the IC50: it is the concentration needed to halve the response being measured.
